Experimental data as given in article PMC11463468.

Columns and labels:
MBD-Halo-AF660 [1] = target: T1, MBD-Halo-AF660 (Homo sapiens, UniProt Q9UIS9 1-77); assay: single-molecule TIRF
T1 sequence: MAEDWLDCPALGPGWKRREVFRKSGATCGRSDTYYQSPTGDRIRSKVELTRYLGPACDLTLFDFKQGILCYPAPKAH

MBD-Halo-AF660 [2] = target: T1, MBD-Halo-AF660; assay: single-molecule TIRF; remark: listed apart in the source
MBD-Halo-AF660 [3] = target: T1, MBD-Halo-AF660; assay: single-molecule TIRF; remark: listed apart in the source
MBD-Halo-AF660 [4] = target: T1, MBD-Halo-AF660; assay: single-molecule TIRF; remark: listed apart in the source
MBD-Halo-AF660 [5] = target: T1, MBD-Halo-AF660; assay: single-molecule TIRF; remark: listed apart in the source
MBD-Halo-AF660 [6] = target: T1, MBD-Halo-AF660; assay: single-molecule TIRF; remark: listed apart in the source
MBD-Halo-AF660 [7] = target: T1, MBD-Halo-AF660; assay: single-molecule TIRF; remark: listed apart in the source
MBD-Halo-AF660 [8] = target: T1, MBD-Halo-AF660; assay: single-molecule TIRF; remark: listed apart in the source
MBD-Halo-AF660 [9] = target: T1, MBD-Halo-AF660; assay: single-molecule TIRF; remark: listed apart in the source
MBD-Halo-AF660 [10] = target: T1, MBD-Halo-AF660; assay: single-molecule TIRF; remark: listed apart in the source
MBD-Halo-AF660 [11] = target: T1, MBD-Halo-AF660; assay: single-molecule TIRF; remark: listed apart in the source
MBD-Halo-AF660 [12] = target: T1, MBD-Halo-AF660; assay: EMSA
[13] = target: T2, MBD-Halo (MBD1 MBD-GGGSG-HaloTag) (Homo sapiens, UniProt Q9UIS9 1-77); assay: EMSA
T2 sequence: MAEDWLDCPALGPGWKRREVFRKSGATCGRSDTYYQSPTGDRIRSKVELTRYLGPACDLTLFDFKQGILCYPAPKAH

MBD-Halo-AF660 [14] = target: T1, MBD-Halo-AF660; assay: single-molecule TIRF; remark: listed apart in the source
MBD-Halo-AF660 [15] = target: T1, MBD-Halo-AF660; assay: single-molecule TIRF; remark: listed apart in the source
MBD-Halo-AF660 [16] = target: T1, MBD-Halo-AF660; assay: single-molecule TIRF; remark: listed apart in the source

## ATAATTAATAGCATCAGCAGGAAGAC (ssDNA) [CPO alone (NTC)]
MBD-Halo-AF660 [1]
  binding result: no binding

B1: SM single-molecule (M7-A39m-CPO) (dsDNA)
DNA 1: GTCTTCCTGCTGATGCAATCCGCTAGGTCGCGAGTCTCCGCCGCGAGAGGGCCGG
DNA 2: CCGGCCCTCTCGCGGCGGAGACTCGCGACCTAGCGGATT
DNA 3: ATAATTAATAGCATCAGCAGGAAGAC
modifications: 5mC strand 1: 21,29,31,39,42,44,53; strand 2: 2,11,13,16,24,26,34
MBD-Halo-AF660 [2]
  binding result: binds

B2: M3a-A39m-CP (dsDNA)
DNA 1: GTCTTCCTGCTGATGCAATCCGCTAGGTCGCGAGTCTCCGCCGCGAGAGGGCCGG
DNA 2: CCGGCCCTCTCGCGGCGGAGACTCGCGACCTAGCGGATT
DNA 3: GCATCAGCAGGAAGAC
modifications: 5mC strand 1: 39,42,44; strand 2: 2,11,13,16,24,26,34
MBD-Halo-AF660 [3]
  binding result: binds

B3: M7-A39m-CP (dsDNA)
DNA 1: GTCTTCCTGCTGATGCAATCCGCTAGGTCGCGAGTCTCCGCCGCGAGAGGGCCGG
DNA 2: CCGGCCCTCTCGCGGCGGAGACTCGCGACCTAGCGGATT
DNA 3: GCATCAGCAGGAAGAC
modifications: 5mC strand 1: 21,29,31,39,42,44,53; strand 2: 2,11,13,16,24,26,34
MBD-Halo-AF660 [4]
  binding result: binds

B4: M4a-CPO (structured_DNA)
DNA 1: GTCTTCCTGCTGATGCAATCCGCTAGGTCGCGAGTCTCCGCCGCGAGAGGGCCGG
DNA 2: ATAATTAATAGCATCAGCAGGAAGAC
modifications: 5mC strand 1: 29,31,42,44
MBD-Halo-AF660 [5]
  binding result: binds

B5: M7-CPO (structured_DNA)
DNA 1: GTCTTCCTGCTGATGCAATCCGCTAGGTCGCGAGTCTCCGCCGCGAGAGGGCCGG
DNA 2: ATAATTAATAGCATCAGCAGGAAGAC
modifications: 5mC strand 1: 21,29,31,39,42,44,53
MBD-Halo-AF660 [6]
  binding result: binds

B6: M7-A17O-CPO (mixed)
DNA 1: GTCTTCCTGCTGATGCAATCCGCTAGGTCGCGAGTCTCCGCCGCGAGAGGGCCGG
DNA 2: CTTATCTGTTTCGCGACCTAGCGGATT
DNA 3: ATAATTAATAGCATCAGCAGGAAGAC
modifications: 5mC strand 1: 21,29,31,39,42,44,53
MBD-Halo-AF660 [7]
  binding result: binds

B7: M2c-A39m-CP (dsDNA)
DNA 1: GTCTTCCTGCTGATGCAATCCGCTAGGTCGCGAGTCTCCGCCGCGAGAGGGCCGG
DNA 2: CCGGCCCTCTCGCGGCGGAGACTCGCGACCTAGCGGATT
DNA 3: GCATCAGCAGGAAGAC
modifications: 5mC strand 1: 42,53; strand 2: 2,11,13,16,24,26,34
MBD-Halo-AF660 [8]
  binding result: no binding

B8: M4a-CP (structured_DNA)
DNA 1: GTCTTCCTGCTGATGCAATCCGCTAGGTCGCGAGTCTCCGCCGCGAGAGGGCCGG
DNA 2: GCATCAGCAGGAAGAC
modifications: 5mC strand 1: 29,31,42,44
MBD-Halo-AF660 [9]
  binding result: binds

B9: M0-CP (structured_DNA)
DNA 1: GTCTTCCTGCTGATGCAATCCGCTAGGTCGCGAGTCTCCGCCGCGAGAGGGCCGG
DNA 2: GCATCAGCAGGAAGAC
MBD-Halo-AF660 [8]
  binding result: no binding

B10: M2a-A39m-CP (dsDNA)
DNA 1: GTCTTCCTGCTGATGCAATCCGCTAGGTCGCGAGTCTCCGCCGCGAGAGGGCCGG
DNA 2: CCGGCCCTCTCGCGGCGGAGACTCGCGACCTAGCGGATT
DNA 3: GCATCAGCAGGAAGAC
modifications: 5mC strand 1: 29,31; strand 2: 2,11,13,16,24,26,34
MBD-Halo-AF660 [10]
  binding result: binds

B11: M7-A39-CP (dsDNA)
DNA 1: GTCTTCCTGCTGATGCAATCCGCTAGGTCGCGAGTCTCCGCCGCGAGAGGGCCGG
DNA 2: CCGGCCCTCTCGCGGCGGAGACTCGCGACCTAGCGGATT
DNA 3: GCATCAGCAGGAAGAC
modifications: 5mC strand 1: 21,29,31,39,42,44,53
MBD-Halo-AF660 [8]
  binding result: no binding

B12: M1b-A39m-CP (dsDNA)
DNA 1: GTCTTCCTGCTGATGCAATCCGCTAGGTCGCGAGTCTCCGCCGCGAGAGGGCCGG
DNA 2: CCGGCCCTCTCGCGGCGGAGACTCGCGACCTAGCGGATT
DNA 3: GCATCAGCAGGAAGAC
modifications: 5mC strand 1: 53; strand 2: 2,11,13,16,24,26,34
MBD-Halo-AF660 [8]
  binding result: no binding

B13: M7-CP (structured_DNA)
DNA 1: GTCTTCCTGCTGATGCAATCCGCTAGGTCGCGAGTCTCCGCCGCGAGAGGGCCGG
DNA 2: GCATCAGCAGGAAGAC
modifications: 5mC strand 1: 21,29,31,39,42,44,53
MBD-Halo-AF660 [11]
  binding result: binds

B14: M7-A39O-CP (mixed)
DNA 1: GTCTTCCTGCTGATGCAATCCGCTAGGTCGCGAGTCTCCGCCGCGAGAGGGCCGG
DNA 2: CTTATCTGTTCCGGCCCTCTCGCGGCGGAGACTCGCGACCTAGCGGATT
DNA 3: GCATCAGCAGGAAGAC
modifications: 5mC strand 1: 21,29,31,39,42,44,53
MBD-Halo-AF660 [8]
  binding result: no binding

B15: SM 55 bp (M7/M7_rev) (dsDNA)
DNA 1: GTCTTCCTGCTGATGCAATCCGCTAGGTCGCGAGTCTCCGCCGCGAGAGGGCCGG
DNA 2: CCGGCCCTCTCGCGGCGGAGACTCGCGACCTAGCGGATTGCATCAGCAGGAAGAC
modifications: 5mC strand 1: 21,29,31,39,42,44,53; strand 2: 2,11,13,16,24,26,34
MBD-Halo-AF660 [12]
  binding result: binds
[13]
  binding result: binds

B16: M4a-A39m-CP (dsDNA)
DNA 1: GTCTTCCTGCTGATGCAATCCGCTAGGTCGCGAGTCTCCGCCGCGAGAGGGCCGG
DNA 2: CCGGCCCTCTCGCGGCGGAGACTCGCGACCTAGCGGATT
DNA 3: GCATCAGCAGGAAGAC
modifications: 5mC strand 1: 29,31,42,44; strand 2: 2,11,13,16,24,26,34
MBD-Halo-AF660 [14]
  binding result: binds

B17: M4a-A17O-CP (mixed)
DNA 1: GTCTTCCTGCTGATGCAATCCGCTAGGTCGCGAGTCTCCGCCGCGAGAGGGCCGG
DNA 2: CTTATCTGTTTCGCGACCTAGCGGATT
DNA 3: GCATCAGCAGGAAGAC
modifications: 5mC strand 1: 29,31,42,44
MBD-Halo-AF660 [15]
  binding result: binds

B18: M7-A17O-CP (mixed)
DNA 1: GTCTTCCTGCTGATGCAATCCGCTAGGTCGCGAGTCTCCGCCGCGAGAGGGCCGG
DNA 2: CTTATCTGTTTCGCGACCTAGCGGATT
DNA 3: GCATCAGCAGGAAGAC
modifications: 5mC strand 1: 21,29,31,39,42,44,53
MBD-Halo-AF660 [16]
  binding result: binds
